Substrate: O=c1cc(C(F)(F)F)c2ccc(OCc3ccccc3)cc2o1
Experiment: purified protein
Type: biochemical, Homo sapiens
Conditions: heme

B1: CYP3A7mut (Homo sapiens; C77G/K244E/K421A/K422A/K424A/R69G) (protein)
chain: YLYGTRTHGLFKKLGIPGPTPLPFLGNALSFRKGYWTFDMECYKKYGKVWGIYDGQQPMLAITDPDMIKTVLVKECYSVFTNRRPFGPVGFMKNAISIAEDEEWKRIRSLLSPTFTSGKLKEMVPIIAQYGDVLVRNLRREAETGKPVTLKHVFGAYSMDVITSTSFGVSIDSLNNPQDPFVENTKKLLRFNPLDPFVLSIKVFPFLTPILEALNITVFPREVISFLTKSVKQIKEGRLKETQKHRVDFLQLMIDSQNSKDSETHKALSDLELMAQSIIFIFAGYETTSSVLSFIIYELATHPDVQQKVQKEIDTVLPNKAPPTYDTVLQLEYLDMVVNETLRLFPVAMRLERVCKKDVEINGMFIPKGVVVMIPSYVLHHDPKYWTEPEKFLPERFSAANADNIDPYIYTPFGSGPRNCIGMRFALVNMKLALVRVLQNFSFKPCKETQIPLKLRFGGLLLTEKPIVLKAESRDETVSGA
notes: Δ3-22 (lacking the membrane tether, residues 3-22), C-terminal 4-histidine tag
B1 was tested, and the Km was 11 ± 1 µM, the kcat was 0.000567 ± 8.33e-05 s⁻¹ and the kcat/Km was 51.7 M⁻¹ s⁻¹.

From article PMC8198134, “Structural Basis for the Diminished Ligand Binding and Catalytic Ability of Human Fetal-Specific CYP3A7” (International Journal of Molecular Sciences, 2021)
